According to US20030166567:

Molecular target: T1, 19-mer (SEQ ID NO:11) cleavage domain peptide
T1 chain: PRCGNPDVANYNFFPRKPK

B1: Proenzyme pro-MMP-9 (protein)
chain: APRQRQSTLVLFPGDLRTNLTDRQLAEEYLYRYGYTRVAEMRGESKSLGPALLLLQKQLSLPETGELDSATLKAMRTPRCGVPDLGRFQTFEGDLKWHHHNITYWIQNYSEDLPRAVIDDAFARAFALWSAVTPLTFTRVYSRDADIVIQFGVAEHGDGYPFDGKDGLLAHAFPPGPGIQGDAHFDDDELWSLGKGVVVPTRFGNADGAACHFPFIFEGRSYSACTTDGRSDGLPWCSTTANYDTDDRFGFCPSERLYTQDGNADGKPCQFPFIFQGQSYSACTTDGRSDGYRWCATTANYDRDKLFGFCPTRADSTVMGGNSAGELCVFPFTFLGKEYSTCTSEGRGDGRLWCATTSNFDSDKKWGFCPDQGYSLFLVAAHEFGHALGLDHSSVPEALMYPMYRFTEGPPLHKDDVNGIRHLYGPRPEPEPRPPTTTTPQPTAPPTVCPTGPPTVHPSERPTAGPTGPPSAGPTGPPTAGPSTATTVPLSPVDDACNVNIFDAIAEIGNQLYLFKDGKYWRFSEGRGSRPQGPFLIADKWPALPRKLDSVFEERLSKKLFFFSGRQVWVYTGASVLGPRRLDKLGLGADVAQVTGALRSGRGKMLLFSGRRLWRFDVKAQMVDPRSASEVDRMFPGVPLDTHDVFQYREKAYFCQDRFYWRVSSRSELNQVDQVGYVTYDILQCPED
B1 was tested, and the “anti-activation (splicing) assay: conversion of pro-MMP-9 by stromilysin, followed by HPLC” value was “Titrating the standard splicing reaction with the 19-mer (SEQ ID NO:11) peptide prevents the conversion of pro-MMP-9 into the prodomain and the active enzyme ... Splicing can be inhibited in a dose dependent manner with micromolar 19-mer (SEQ ID NO:11) peptide”.
